PMC13167773, “Chiral inversion mutagenesis identifies geometrically constrained residues within self-associating low-complexity domains” (Proceedings of the National Academy of Sciences of the …, 2026)

T1: wild-type glutathione S-transferase (GST)-EMD LCD fusion protein
T1 sequence (P50402 whole entry, species assumed, looked up): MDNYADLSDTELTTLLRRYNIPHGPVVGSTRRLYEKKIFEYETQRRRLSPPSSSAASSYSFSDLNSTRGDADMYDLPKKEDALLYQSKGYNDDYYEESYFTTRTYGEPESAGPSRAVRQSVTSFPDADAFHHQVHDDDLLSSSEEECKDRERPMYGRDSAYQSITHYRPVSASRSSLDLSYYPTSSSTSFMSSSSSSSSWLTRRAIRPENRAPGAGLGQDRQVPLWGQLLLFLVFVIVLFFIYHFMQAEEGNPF

B1: untagged semisynthetic EMD LCD (residues 46 to 221), all-L-WT (domain or fragment, UniProt P50402 46-221, looked up)
chain: RRLSPPSSSAASSYSFSDLNSTRGDADMYDLPKKEDALLYQSKGYNDDYYEESYFTTRTYGEPESAGPSRAVRQSVTSFPDADAFHHQVHDDDLLSSSEEECKDRERPMYGRDSAYQSITHYRPVSASRSSLDLSYYPTSSSTCFMSSSSSSSSWLTRRAIRPENRAPGAGLGQER
notes: Emerin (EMD) LCD residues 46 to 221, S189C and D220E; Rink amide resin implies a C-terminal amide (surmised); also called WT variant; source: RP-HPLC purified
B2: synthetic NEFL head domain 5×D_(22-30) (protein)
chain: SSFSYEPYYSTSYKRRYVETPRVHISSVRCGYSTARSAYSSYSAPVSSSLSVRRSYSSSSGSLMPSLENLELS
B3: synthetic NEFL head domain 5×D_(43-51) (protein)
chain: B2 chain
B4: synthetic NEFL head domain 5×D_(33-41) (protein)
chain: B2 chain
B5: synthetic NEFL head domain 5×D_(53-63) (protein)
chain: B2 chain
B6: synthetic NEFL head domain 5×D_(63-71) (protein)
chain: B2 chain
B7: HA-tagged semisynthetic EMD LCD 3×D_(191-195) (domain or fragment)
chain: B1 chain
modifications: three D-amino acids at alternating positions, 3×D_(191-195)
B8: HA-tagged semisynthetic EMD LCD 3×D_(195-199) (domain or fragment)
chain: B1 chain
modifications: three D-amino acids at alternating positions, 3×D_(195-199)
B9: HA-tagged semisynthetic EMD LCD 3×D_(199-203) (domain or fragment)
chain: B1 chain
modifications: three D-amino acids at alternating positions, 3×D_(199-203)
B10: HA-tagged semisynthetic EMD LCD 3×D_(207-211) (domain or fragment)
chain: B1 chain
modifications: three D-amino acids at alternating positions, 3×D_(207-211)
B11: HA-tagged semisynthetic EMD LCD 3×D_(211-215) (domain or fragment)
chain: B1 chain
modifications: three D-amino acids at alternating positions, 3×D_(211-215)
B12: HA-tagged semisynthetic EMD LCD 3×D_(203-207) (domain or fragment)
chain: B1 chain
modifications: three D-amino acids at alternating positions, 3×D_(203-207)
B13: synthetic NEFL head domain (residues 2 to 74), WT (domain or fragment, UniProt P07196 2-74, looked up)
chain: B2 chain
notes: neurofilament light chain (NEFL) head domain residues 2 to 74, ligation junction cysteine S31C and D72E; also called WT head domain; NEFL LCD; source: fully synthetic: NEFL-P1 (2 to 30, MesNa thioester) ligated to NEFL-P2 (31 to 74) by native chemical ligation; RP-HPLC purified
B14: semisynthetic EMD LCD with a central 1×D inversion within the 3×D_(191-195) variant (protein)
chain: B1 chain
B15: untagged semisynthetic EMD LCD 3×D_(195-199) (protein)
chain: B1 chain
B16: untagged semisynthetic EMD LCD 3×D_(199-203) (protein)
chain: B1 chain
B17: untagged semisynthetic EMD LCD 3×D_(191-195) (protein)
chain: B1 chain
B18: untagged semisynthetic EMD LCD 3×D_(203-207) (protein)
chain: B1 chain

Molecular target: the molecule itself
Test: turbidity (absorbance at 395 nm); untagged semisynthetic EMD LCD ChIM library, 50 μM LCD, rapid dilution from strong denaturant into physiological buffer, n = 3
Details: not given

Molecule | binding result
B1 | binds

molecular target: P07196; test: turbidity (absorbance at 395 nm); synthetic NEFL head domain 5×D library, 100 μM LCD, A395, n = 3; details: other: turbidity (absorbance at 395 nm)

Molecule | fold decrease in turbidity relative to WT
B2 | 9.1-fold
B3 | 2.7-fold
B4 | 20-fold
B5 | 1.6-fold
B6 | 1 fold

molecular target: T1, wild-type glutathione S-transferase (GST)-EMD LCD fusion protein; test: pull-down; WT GST-EMD LCD immobilized on glutathione resin, incubated with HA-tagged EMD LCD prey (50 nM), washed with binding buffer, eluted with GSH; anti-HA Western blot of eluent relative to input, densitometry, n = 3; details: not given

Molecule | fold reduction of pulldown relative to WT [fold] | fold difference of pulldown from WT [fold]
B7 | 8.8 | –
B8 | 7.9 | –
B9 | 6.2 | –
B10 | – | 1.8
B11 | – | 1.7
B12 | 3.6 | –

test system: not listed separately; test: turbidity (absorbance at 395 nm); untagged recombinant EMD LCD 3×Pro library, 60 μM LCD, transfer from denaturing to native Tris buffer, n = 3; self-association read as precipitation; details: other: turbidity (absorbance at 395 nm)

Molecule | fold reduction of turbidity relative to WT
untagged EMD LCD 3×Pro_(193-196) | 16.6 fold
untagged EMD LCD 3×Pro_(188-191) | 108 fold
untagged EMD LCD 3×Pro_(203-206) | 14.3-fold
untagged EMD LCD 3×Pro_(183-186) | modestly reduces turbidity by 2.8-fold relative to WT
untagged EMD LCD 3×Pro_(198-201) | 34.7 fold

Molecular target: the molecule itself
Test: turbidity (absorbance at 395 nm); synthetic NEFL head domain 5×D library, 100 μM LCD, A395, n = 3
Details: not given

Molecule | binding result
B13 | binds

molecular target: T1, wild-type glutathione S-transferase (GST)-EMD LCD fusion protein; test: pull-down; WT GST-EMD LCD immobilized on glutathione resin, incubated with HA-tagged EMD LCD prey (50 nM), washed with binding buffer, eluted with GSH; anti-HA Western blot of eluent relative to input, densitometry, n = 3; details: not given; remark: another data set of the same source

Molecule | fold reduction of pulldown relative to WT [fold]
HA-tagged EMD LCD 3×Pro_(188-191) (domain or fragment) | 5
HA-tagged EMD LCD 3×Pro_(193-196) (domain or fragment) | 5.9
HA-tagged EMD LCD 3×Pro_(198-201) (domain or fragment) | 3.4
HA-tagged EMD LCD 3×Pro_(183-186) (domain or fragment) | 2.2

molecular target: P50402; test: turbidity (absorbance at 395 nm); untagged semisynthetic EMD LCD ChIM library, 50 μM LCD, rapid dilution from strong denaturant into physiological buffer, n = 3; details: other: turbidity (absorbance at 395 nm)

Molecule | fold decrease in turbidity relative to WT | fold decrease in turbidity
B14 | a 6.4-fold decrease in turbidity relative to WT | –
B15 | – | 2.8 fold
B16 | – | 2.1-fold
B17 | – | 13.3 fold
B18 | – | a modest 1.4-fold decrease in turbidity
